Experimental data from paper PMC11945200, “Aptamer Paper-Based Fluorescent Sensor for Determination of SARS-CoV-2 Spike Protein”.

Target: SARS-CoV-2 spike S1 protein (SARS-CoV-2, UniProt P0DTC2 13-685)
Assay: fluorescence recovery (target-induced release of the probe from Nb2C MXene quencher)
Settings: protein: recombinant

B1: SARS-CoV-2 S-RBD aptamer (G-CDs@Apt) (ssDNA)
DNA: CAGCACCGACCTTGTGCTTTGGGAGTGCTGGTCCAAGGGCGTTAATGGACA
modifications: 5'-NH2-C6
**Q.** Does B1 bind?
**A.** binds
